The series in a line: soluble on expression in E. coli; label from the status in PepcDB or PDB records.
For the sequence “MGSDKIHHHHHHMAIKILSVDDEQDLEALLTQYFRRKIRKGEYEFSFAHNGLEALRMMLDHPDFDIILSDINMPEMDGLTLLTKINEMRNPALKCIIVSAYGDMENIRTAMNHGAFDFATKPIDMEDLERTIEKAVEQISFIKEAQKEHHQLEEIQYDLNVAREIQQSILPKQFPPFPQYKQFDLYATMSAAKAVGGDFYDFFLVDDNHLGFTIADVSDKGIPAAIFMAISRTVIRATALRQLSPAVCMKESNDLLCRESVNGMFVTTFYAILNIHTGDVVYCNGGHNRPVWIRKNDKVSLLPMTGGMALGVVPGLAYKEQSLKLEAGDSLFLYTDGISEAMNLRNEQYGDIRLVEACSSVKNQSPKSMIEGISESVQSFVNGATQSDDITMLALTYKG”, the “soluble on expression in E. coli” value is recorded as “not soluble”.
With “KELIMCLSGSILRSATQQYSVGDYIEINGLRGRVVDINLLNTLMMQVGPNPLVGQLAGTTVSFPNSLLLSHPVRRDNILGDYVIHTVEIPVPIHLDSDEAVCRLKAVLEPLCAPYIPAIQRHLENVQAEKLFITPAARPRVTRVPYDDKAYRIIVRFASPVSKRLEIQQAVMDEFLRVQYRLLNHPAGSETL” the entry was “not soluble”; with “MTFLIKRETQVDQILRDIRAVVNQMVPKEAKITEIEFEGPELVIYVKNPEAIMKDGELIKDLAKVLKKRISVRPDPEVLLPPEEAEKLIFEIVPKEAEITNIAFDPSVGEVLIEAKKPGLVIGKNGETLRLITQKVKWAPKVVRTPPLQSQTIYSIRQILQTESKDRRKFLRQVGRNIYRKPEYKSRWIRITGLGGFREVGRSALLVQTDESFVLVDFGVNVAMLNDPYKAFPHFDAPEFQYVLREGLLDAIIITHAHLDHCGMLPYLFRYNLFDGPIYTTPPTRDLMVLLQKDFIEIQQSNGQDPLYRPRDIKEVIKHTITLDYGEVRDISPDIRLTLHNAGHILGSAIVHLHIGNGLHNIAITGDFKFIPTRLLEPANAKFPRLETLVMESTYGGANDIQMPREEAEKRLIEVIHNTIKRGGKVLIPAMAVGRAQEVMMVLEEYARIGGIEVPIYLDGMIWEATAIHTAYPEYLSRRLREQIFKEGYNPFLSEIFHPVANSRERQDIIDSNEPAIIIASSGMLVGGPSVEYFKQLAPDPKNSIIFVSYQAEGTLGRQVQSGIREIPMVGEEGRTEVIKVNMEVHTIDGFSGHADRRELMNYVAKVRPRPERIITVHGEPQKCLDLATSIHRKFGISTRAPNNLDTIRLR”, “soluble”.
To “MDKLSLEEKVDLLIENGIRILNKAYALEKKPVDMGHGVLLYPSEFHLIETAGKNPAENLTSISSRLGVTKGAISQMVKKLEKKGLVKKVRVPGNKKDVMLELTDFGREAFEWHKSLHESMEAGIRKELEGMSSSEMETFLRVYGHLERMLDRCMERYR” belongs “not soluble”; to “MGSDKIHHHHHHMGLAKTRSAAISGVTGVIVDVEANIGAGLPGTYIVGLADAAVAEARQRIKTAVNNSELPWPKTKVIVNLSPASLRKNGAQFDLGICMAIMAASGMHNPDCRDIENTLFLGEIGLDGAIKPISGLVPALLAARGAEIRNVVIPWGNAAEAMAVIDDSAMNVLVARSISEATEWLKGKDDLIAAHDVILDEHATKKQPHKVGDMQDVVGQSDAKKAAEIAVAGGHNIVMIGPPGSGKSMIAQRMAGLLPALTHTEMIEATAIHSVMGQAFNGPMTHPPFVAPHHSITKAALLGGGSGNLQPGAASLAHTGVLFLDEVSEIPANILDCLRMPLECGEIKLMRHRREVTFPARFQLVMATNPCRCAAELPSECRCSATTRARYLSNISGPLRDRLDIFVRTHAQGAVISDANQESSKSIAERVQSARERSEHRWRTAGFTVTTNAAMDPYHLRRHFPADEASMALLSSYLGDGELSQRGVDRALKVAWTLCDLEGKTRPDLGHTAYALELRDDCIRENAA”, “not soluble”; to “MGSDKIHHHHHHMVVTEYELKPQNFPRFPLDWSEIFGRKAKIVVEIGFGNGEFLAELARRHPEKDFVGFEVSITSFVKAQKKFKRYNLKNVRLVKVDARFGLRELFPDNSVEKVYINFPCPWPKKRHESRRITSYDFLQTLSAVLEMDGTVEFATDEEWYAREVLDTFESSEYFVVDVFEENFKRDVETRYERKWKSQGKKTFLIVARKVKNGTVKRLMEGENTMAHSVFEGNVTWEKLKELEGKVFKDKNKIFVVKKVYRDGDYLLKVISTDEGGFQQVYYLNLSGRDGKWVLKLDEGSDPYRTPALKWSLRRIPEELTAQGSP”, “not soluble”.
Turning to “MHPKDQSVTLLSIIRDYLKLSDKEREAARILANGLVKVDGKTVREKKFAVGFMDVIEINGESYRVVYNDQGALVLMKETKERASMKLLKVRSKVIAPGNRIQLGTHDGRTFITDDKSKKVGDVWAVSVPDMKISEIIKMQPGNKAYITAGSHVNQTGTISKIEAKEGSSANLVHFQEGFSTIKDHVFMIGSSKFSFVLSPEEVIPLEHHHHHH”, the “soluble on expression in E. coli” value is “soluble”.
To “GSENIYTTLKFESMMQQRVIQIRSIPEEEYHELVSVQFKTDGGKYEKGEKQDLELSEKKTENGKDTESWGWNENQDSDEHDGWDEELDIDVDNVPIQVSVFVQSAAKVFTEFEQGCDTIGRSKVESIYLYKFNLLQTAFFAMVSEKVNDWTQLYKDVRYLYTENPKLLQLMELNSRRLDLNLNLIKKTIYKLVNDQLQELKDNERTPDWDITISSLLPYLKKTALPTLYKLEDNTILVALIRYIVHDLVIDNILHWRVISEKSSENLSEFIMLLLSGLEIPRLNLIETYRHSREKLGILSKILTAHLKDILEMFYEGEFFLFETDEIVQWIILLFADTPTRRDCIDEIRRVREEATD” belongs “soluble”; to “MTKVERLLINYKTLEEFKKFKEYGIQELSMLEELQDNIIENDSTSPFYGIYFGDKLVARMSLYQVNGKSNPYFDNRQDYLELWKLEVLPGYQNRGYGRALVEFAKSFKMPIRTNPRMKSAEFWNKMNFKTVKYDMARDKGEDPLIWHPDMDREMTPGESA”, “soluble”.
To “GMRGLIVDYAGVLDGTDEDQRRWRNLLAAAKKNGVGTVILSNDPGGLGAAPIRELETNGVVDKVLLSGELGVEKPEEAAFQAAADAIDLPMRDCVLVDDSILNVRGAVEAGLVGVYYQQFDRAVVEIVGLFGLEGEF” belongs “soluble”; to “MANLTEKFLRIFARRGKSIILAYDHGIEHGPADFMDNPDSADPEYILRLARDAGFDGVVFQRGIAEKYYDGSVPLILKLNGKTTLYNGEPVSVANCSVEEAVSLGASAVGYTIYPGSGFEWKMFEELARIKRDAVKFDLPLVVESFPRGGKVVNETAPEIVAYAARIALELGADAMKIKYTGDPKTFSWAVKVAGKVPVLMSGGPKTKTEEDFLKQVEGVLEAGALGIAVGRNVWQRRDALKFARALAELVYGGKKLAEPLNV”, “soluble”; to “MPSTLQGTFHTYRIIRRLGQGAFGEVSLAGVLETGEVVALKRIHIRNTGGIPDVVVREIKALQSVSHPNVVALLDVFPKGQAIYLVQEYCTTDLAALLRRLPAPPPERIAKGLMLQLCRGLEALHAEGIMHRDVKPSNTLLSAASGTAKLADCGLARPLDGGERPAYTHAVATRWYRAPELLYGARAYGPAVDVWALGLVFAELLGLSPLVPGDNDIDQLGRVIATFGSMEPVWLGVRALPDWGKIAFPHCEPLPLGDLLPGAPAAALEFLAAFLRYDPAKRITAACAVRSTYLTATQPL”, “not soluble”.
With “MISDRPGLPGEDMRLALLSFENYLLANRNTEKPVLHIALSPAPEDKLTDEQLAELAQNYMQKMGYGDQPYIAYKHGDTHNTHIHIVSVCVDEEGRKINDSFEHRRSMTACRELEIDFGLRNGADMEERNQKAEMKKVDATQGDVRHQIGNTLKAVLESYRFQTFGEYSALLSTLNIEAKQVRGEFKGEPYTGIIYSATDDSGKVVSPPFKSSRFGKRFGNERLEKRMLSHTRDFKDGKWAPTIHAQVVYAMRHARSREELAGLLKKARIDAVFRENEQGRIYGVTFIDHNRREVFNGSRMGKEFSANIYNELFKWWDGIPATERSAHTGTELWQHHSHKAESGSPLEQAASIFSMETNPVDYGEEALARRMKKRRKAKRKSRGILEHHHHHH” the entry was “soluble”.
Consider “MGSDKIHHHHHHMVNNVDVYYEGWGERWQWGRLASSTALTGRPLIMFEYSEEAIRRGLELSSLRLPLNGPRLSRGFPSYQLGLPGPVYDALPDGWGMLLMDRLFRLRGLNTARIGPLERLTYIGSNAMGAMSFEPSQPEASAVSEDIPLAQLSAEVQEVLDGEGGEFLQRLLQMGGSPQGARPKALLYCDPDTKTLTTSAASGLDAWLFKFPAKQEHPEVCAIEAVYAQCLRECHIHTPDTEYIELPNGQAAFASRRFDRQNGLRIPMQSLAAFTEANYQSPGSLDYANFLRATQICTNDVREKVLAFERVVFNVIFNNRDDHTKNFAYIMSSSGQWKLAPAYDVTYCEGPGGYHQMDVMGEALEISRELIHRLGVQEADLTSSQVDIIIEQYGEVAASFAKRAAGMFPGCITQDTLRTIQDRINDNIRCLQKR”, for which the “soluble on expression in E. coli” value was “not soluble”.
For the sequence “MGHHHHHHSHMTSETPDYLLKYAAISSSEQRQSYKNDFNAEYSEYRDLHARIERITRRFTQLDAQLRQLSQGSEEYETTRGQILQEYRKIKKTNTNYSQEKHRCEYLHSKLAHIKRLIAEYDQRQLQAWP”, the “soluble on expression in E. coli” value is “soluble”.
Consider “MGYVEIIEQPKQRGMRFRYKCEGRSAGSIPGERSTDTTKTHPTIKINGYTGPGTVRISLVTKDPPHRPHPHELVGKDCRDGFYEAELCPDRCIHSFQNLGIQCVKKRDLEQAISQRIQTNNNPFQVPIEEQRGDYDLNAVRLCFQVTVRDPSGRPLRLPPVLSHPIFDNRAPNTAELKICRVNRNSGSCLGGDEIFLLCDKVQKEDIEVYFTGPGWEARGSFSQADVHRQVAIVFRTPPYADPSLQAPVRVSMQLRRPSDRELSEPMEFQYLPDGSLSSGSSLSSPSAGAAPRVLFGEWLLGEISSGCYEGLQWLDEARTCFRVPWKHFARKDLSEADARIFKAWAVARGRWPPSSRGGGPPPEAETAERAGWKTNFRCALRSTRRFVMLRDNSGDPADQHKVYALSGSLSSDSSLSSPSALSPKPRILPWLVSQLDLGQLEGVAWVNKSRTRFRIPWKHGLRQDAQQEDFGIFQAWAEATGAYVPGRDKPDLPTWKRNFRSALNRKEGLRLAEDRSKDPHDPHKIYEFVNGLEHHHHHH”, for which the “soluble on expression in E. coli” value is reported as “soluble”.
With “MRIAVASGKGGTGKTTVAVNLAVFNHIDLFDLDVEEPNDRIFIKGEAEEWPAYRKVPEVRENCNACGVCKDVCQYSAIYVIDKAYPLPELCHSCGACIYLCPEKAMEEVDYQTGKIVRVKSDITLTYGEMRIGEASAVFLIKQVKELMGKNAIIDSPPGASCPMVESVSDADYVILVAEPTPFGLHDLKIAAEVVSDLGLKFGVVVNKHGLPFDGIERYCKEGGVEILGKIPFSKEIAEKYSRGELLHDMKDFFVQLYEGIALEHHHHHH” the entry was “soluble”; with “MGKYFGTDGVRGVANQELTPELAFKLGRYGGYVLAHNKGEKHPRVLVGRDTRVSGEMLESALIAGLISIGAEVMRLGIISTPGVAYLTRDMGAELGVMISASHNPVADNGIKFFGSDGFKLSDEQENEIEALLDQENPELPRPVGNDIVHYSDYFEGAQKYLSYLKSTVDVNFEGLKIALDGANGSTSSLAPFLFGDLEADTETIGCSPDGYNINEKCGSTHPEKLAEKVVETESDFGLAFDGDGDRIIAVDENGQIVDGDQIMFIIGQEMHKNQELNNDMIVSTVMSNLGFYKALEQEGIKSNKTKVGDRYVVEEMRRGNYNLGGEQSGHIVMMDYNTTGDGLLTGIQLASVIKMTGKSLSELAGQMKKYPQSLINVRVTDKYRVEENVDVKEVMTKVEVEMNGEGRILVRPSGTEPLVRVMVEAATDEDAERFAQQIADVVQDKMGLDK”, “not soluble”.
To “MVVFVASSRWDPSPDVIGQLCCLVSGGRSVPSTALKLGLSLSAAYRLAREYQLPVRVQTSTSASVTKSIETLWKQDVKPSDISTRLNVGTSVVYRIGIELGLWQRNPHGRRASATSRRCEYVMLRFGAMSRKDTAKVVGINPRETLDIDKGVTKLNGVGRVPCVPDEPDTELYKRLMQVVPYVDGRQAVPVEVIPQHAIDKRMSPR” belongs “not soluble”.

These data come from the DeepSol protein solubility set.
